According to PMC9256704 (2022):

Biological target: T1, recombinant TRIB2 protein (TP301210, OriGene), biotinylated (human, UniProt Q92519 1-343, biotinylated)
T1 chain: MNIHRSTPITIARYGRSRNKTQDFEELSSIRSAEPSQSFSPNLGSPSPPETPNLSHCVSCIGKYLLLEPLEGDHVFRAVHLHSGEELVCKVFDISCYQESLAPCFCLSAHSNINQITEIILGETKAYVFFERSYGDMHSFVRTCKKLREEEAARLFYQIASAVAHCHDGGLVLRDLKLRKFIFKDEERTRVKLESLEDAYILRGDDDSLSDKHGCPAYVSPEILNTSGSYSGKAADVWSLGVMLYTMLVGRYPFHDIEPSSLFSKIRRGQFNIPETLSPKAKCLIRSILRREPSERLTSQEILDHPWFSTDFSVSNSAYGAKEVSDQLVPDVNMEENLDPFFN
Experiment: BLI

B1: PKM2 (ab89364, Abcam) (natural protein)
chain: not shown
With B1 as the binder, how does the koff read?
Its koff is 0.0175 s⁻¹.
